Test results published in patent publication US20050058639A1 (AstraZeneca / MedImmune, published 2005).

Experiments:
[1] = target: T1, human monocyte chemo-attractant protein-1 (MCP-1) (human, UniProt P13500 24-99); test: Biacore 2000, mAb immobilized, antigen injected; Biacore, 25 C, native MCP-1 injected over immobilized mAb 3.11.2 (250 RU)
T1 construct: 76-residue recombinant protein from E. coli, bought (PeproTech); also called hMCP-1(MCAF); human MCP-1
Method: (§1) The interaction analysis was performed at 25° C. using two CM5 chips docked in Biacore 2000 optical biosensors. Individual flow cells on each chip were activated with a 7-minute injection of NHS/EDC, carbohydrazide was coupled through the NHS ester using a 7-minute injection, and the residual activated groups were blocked with a 7-minute injection of ethanolamine. […] The oxidized antibody was desalted into 10 mM sodium acetate, pH 5.0, to couple the antibody to the carbohydrazide-modified surface. […] The mAb surfaces were stabilized by reducing the hydrazone bond with 0.1 M sodium cyanoborohydride. The antigen/antibody interaction was tested by injecting duplicate antigen samples diluted in running buffer (10 mM HEPES, 150 mM NaCl, 0.005% surfactant, 200 μg/mL BSA, pH 7.4), in a 300-fold concentration range. The surfaces were regenerated with a 12-second pulse of 15 mM H₃PO₄.

human RANTES = target: T2, human RANTES (human, UniProt P13501 24-91); test: ELISA, coated antigen
T2 construct: also called hRANTES
T2 sequence (looked up): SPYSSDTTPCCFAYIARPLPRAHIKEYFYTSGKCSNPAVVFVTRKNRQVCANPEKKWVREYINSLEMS
In short: (§2)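 Plates coated overnight at 4° C with MCP-1, MCP-2, MCP-3, MCP-4, RANTES, GRO-alpha, MIP-1 alpha, eotaxin, rat MCP-1 or mouse JE (2 μg/ml, carbonate buffer pH 9.6), blocked with BSA. Hybridoma supernatants bound 2 hours at room temperature; TMB colour developed about 10 minutes.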

human MIP-1-alpha = target: T3, human MIP-1-alpha (human, UniProt P10147 24-92, limits assumed); test: ELISA, coated antigen
T3 construct: also called hMIP-1-alpha
T3 sequence (looked up): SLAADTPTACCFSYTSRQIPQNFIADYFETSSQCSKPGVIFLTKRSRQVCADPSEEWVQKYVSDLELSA
In short: as §2

human GRO/MGSA = target: T4, human GRO/MGSA (human, UniProt P09341 35-107); test: ELISA, coated antigen
T4 construct: also called hGRO/MGSA; GRO-alpha
T4 sequence (looked up): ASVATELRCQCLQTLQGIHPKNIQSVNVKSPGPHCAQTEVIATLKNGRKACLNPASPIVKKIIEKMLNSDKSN
In short: as §2

recombinant human MCP-2 [2] = target: T5, recombinant human MCP-2 (human, UniProt P80075 24-99); test: ELISA, coated antigen
T5 construct: also called rhMCP-2
T5 sequence (looked up): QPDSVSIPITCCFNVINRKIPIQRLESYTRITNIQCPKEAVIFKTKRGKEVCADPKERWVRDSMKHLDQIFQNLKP
In short: as §2

rat MCP-1 = rat MCP-1 (rat, UniProt P14844 24-148); test: ELISA, coated antigen
Sequence of rat MCP-1 (P14844 24-148 limits assumed): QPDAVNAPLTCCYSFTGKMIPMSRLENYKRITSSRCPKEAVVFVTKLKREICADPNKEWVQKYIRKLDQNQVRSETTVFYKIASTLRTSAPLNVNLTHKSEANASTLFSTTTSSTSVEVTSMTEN
In short: as §2

[3] = target: T6, recombinant mouse JE/MCP-1 (mouse, UniProt P10148 24-148); test: ELISA, coated antigen
T6 construct: also called rmJE/MCP-1
In short: as §2

recombinant human MCP-3 [4] = target: T7, recombinant human MCP-3 (human, UniProt P80098 24-99); test: ELISA, coated antigen
T7 construct: also called rhMCP-3
T7 sequence (P80098 24-99 limits assumed): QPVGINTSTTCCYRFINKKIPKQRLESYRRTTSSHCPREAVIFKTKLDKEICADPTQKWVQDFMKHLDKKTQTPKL
In short: as §2

recombinant human MCP-4 [5] = target: T8, recombinant human MCP-4 (human, UniProt Q99616 24-98, limits assumed); test: ELISA, coated antigen
T8 construct: also called rhMCP-4
In short: as §2

human eotaxin = target: T9, human eotaxin (human, UniProt P51671 24-97); test: ELISA, coated antigen
T9 construct: also called hEotaxin
In short: as §2

[6] = target: T1, human monocyte chemo-attractant …; test: ELISA, coated antigen; ELISA, purified clone 1:50 on coated hMCP-1 (2 ug/mL), cross-reactivity panel
Method: Determining cross-reactivity of anti-MCP-1 antibodies with other chemokines. ELISA plates (Fisher Cat. No. 12-565-136) were coated with 50 μl/well of MCP-1, MCP-2, MCP-3, MCP-4, RANTES, GRO-alpha, MIP-1 alpha, eotaxin, rat MCP-1 and mouse JE (2 μg/ml) in coating buffer (0.1 M carbonate buffer, pH 9.6, NaHCO₃ 8.4 g/L, then incubated at 4° C. overnight. After incubation, the plates were washed with washing buffer (0.05% Tween 20 in PBS) three times. 200 μL/well blocking buffer (0.5% BSA, 0.1% Tween 20, 0.01% Thimerosal in 1×PBS) were added and the plates incubated at room temperature for 1 hour. After incubation, the plates were washed with washing buffer three times. 50 μL/well of hybridoma supernatants, and positive and negative controls (positive control was anti-MCP-1 antibody purchased from R&D Sciences, and negative control was an antibody to Keyhole Limpet Hemocyanin produced at Abgenix) were added and the plates incubated at room temperature for 2 hours. After incubation, the plates were washed three times with washing buffer. […] After incubation, the plates were washed three times with washing buffer and 100 μL/well of TMB (BioFX Lab. Cat. #TMSK-0 100-01) was added and the plates allowed to develop for about 10 minutes.

recombinant human MCP-2 [7] = target: T5, recombinant human MCP-2; test: Biacore 2000, mAb immobilized, antigen injected
Method: as §1

recombinant human MCP-3 [8] = target: T7, recombinant human MCP-3; test: Biacore 2000, mAb immobilized, antigen injected
Method: as §1

recombinant human MCP-4 [9] = target: T8, recombinant human MCP-4; test: Biacore 2000, mAb immobilized, antigen injected
Method: as §1

[10] = target: T1, human monocyte chemo-attractant …; test: cell-based or functional assay
recombinant human MCP-3 [11] = target: T7, recombinant human MCP-3; test: cell-based or functional assay
[12] = target: T1, human monocyte chemo-attractant …; test: ELISA, hybridoma supernatant on coated MCP-1; ELISA, hybridoma supernatant on plate-coated non-reduced MCP-1 (2 ug/mL)
Method: Selection of candidate antibodies for ELISA. After 14 days of culture, hybridoma supernatants were screened for MCP-1-specific monoclonal antibodies. The ELISA plates (Fisher, Cat. No. 12-565-136) were coated with 50 μl/well of MCP-1 (2 μg/mL) in Coating Buffer (0.1 M Carbonate Buffer, pH 9.6, NaHCO₃8.4 g/L), then incubated at 4° C. overnight. After incubation, the plates were washed with Washing Buffer (0.05% Tween 20 in PBS) three times. 200 μl/well Blocking Buffer (0.5% BSA, 0.1% Tween 20, 0.01% Thimerosal in 1× PBS) were added and the plates incubated at room temperature for 1 hour. After incubation, the plates were washed with Washing Buffer three times. 50 μL/well of hybridoma supernatants, and positive and negative controls were added and the plates incubated at room temperature for 2 hours.
The positive control used throughout was XMG2 MCP-1 Group 1, footpad N160-7 and the negative control was XMG2 KLH Group 1, footpad L627-6. After incubation, the plates were washed three times with Washing Buffer. […] In the secondary screen, three sets of samples (positives in first screening) were screened, one set for hIgG detection, one set for hKappa detection, and one set for hlambda detection. After incubation, the plates were washed three times with Washing Buffer. 100 μL/well of TMB (BioFX Lab. Cat. #TMSK-0100-01) were added and the plates allowed to develop for about 10 minutes (until negative control wells barely started to show color), then 50 μL/well stop solution (TMB Stop Solution (BioFX Lab. Cat. #STPR-0100-01) were added and the plates read on an ELISA plate reader at wavelength 450 nm. The OD readings from the positive wells are presented in Table 9.

T1 sequence (P13500 24-99): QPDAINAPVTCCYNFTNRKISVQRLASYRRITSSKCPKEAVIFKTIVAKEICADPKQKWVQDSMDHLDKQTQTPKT

Kd [1]: 0.0033 nM
koff [1]: 0.001 s⁻¹
kon [1]: 3e+08 M⁻¹ s⁻¹
ELISA OD (human RANTES): 0.064 OD450
ELISA OD (human MIP-1-alpha): 0.053 OD450
ELISA OD (human GRO/MGSA): 0.054 OD450
ELISA OD (recombinant human MCP-2 [2]): 0.336 OD450
ELISA OD (rat MCP-1): 0.057 OD450
ELISA OD [3]: 0.063 OD450
ELISA OD (recombinant human MCP-3 [4]): 1.32 OD450
ELISA OD (recombinant human MCP-4 [5]): 0.981 OD450
ELISA OD (human eotaxin): 0.339 OD450
ELISA OD [6]: 0.803 OD450
Kd (recombinant human MCP-2 [7]): 0.046 nM
koff (recombinant human MCP-2 [7]): 0.012 s⁻¹
kon (recombinant human MCP-2 [7]): 2.6e+08 M⁻¹ s⁻¹
Kd (recombinant human MCP-3 [8]): 0.049 nM
koff (recombinant human MCP-3 [8]): 0.0074 s⁻¹
kon (recombinant human MCP-3 [8]): 1.5e+08 M⁻¹ s⁻¹
Kd (recombinant human MCP-4 [9]): 0.0037 nM
koff (recombinant human MCP-4 [9]): 0.00055 s⁻¹
kon (recombinant human MCP-4 [9]): 1.5e+08 M⁻¹ s⁻¹
IC50 Ca++ Flux [10]: 0.092 µg/mL
IC50 Chemotaxis [10]: 0.33 µg/mL
IC50, inhibition of MCP-3-induced migration of THP-1 cells (chemotaxis assay, MCP3 at 0.166 nM) (recombinant human MCP-3 [11]): 0.139 nM
ELISA OD-MCP-1 [12]: 4 OD450
B1: anti-MCP-1 mAb 3.11.1 (antibody, human IgG4, kappa, V domains shown)
VH: QVQLQESGPGLVKPSQTLSLTCTVSGGSISSGGNYWNWIRQHPGKGLEWIGYIYYSGNTYYNPSLKSRITISIDTSKNQFSLTLSSVTAADTAVYYCARDGGDDAFDIWGQGTMVTVSS
VL: DIQMTQSPSSLSASVGDRVTITCQASQDISNYLNWYQQKPGKAPKLLIYDASNLETGVPSRFSGSGSGTDFTFTINSLQPEDIATYYCQEYNNLPYSFGQGTKLEIKR
